# Measurements published in US20030129724A1 (Harvard, published 2003).
# T1: Recombinant FLAG-epitope tagged HDAC6 (human, UniProt Q9UBN7 1-1215)
# T1 construct: Full length ORF with C-terminal FLAG tag in pBJ5, expressed in TAg Jurkat cells; also called HDAC6-FLAG; HD6
# T1 sequence: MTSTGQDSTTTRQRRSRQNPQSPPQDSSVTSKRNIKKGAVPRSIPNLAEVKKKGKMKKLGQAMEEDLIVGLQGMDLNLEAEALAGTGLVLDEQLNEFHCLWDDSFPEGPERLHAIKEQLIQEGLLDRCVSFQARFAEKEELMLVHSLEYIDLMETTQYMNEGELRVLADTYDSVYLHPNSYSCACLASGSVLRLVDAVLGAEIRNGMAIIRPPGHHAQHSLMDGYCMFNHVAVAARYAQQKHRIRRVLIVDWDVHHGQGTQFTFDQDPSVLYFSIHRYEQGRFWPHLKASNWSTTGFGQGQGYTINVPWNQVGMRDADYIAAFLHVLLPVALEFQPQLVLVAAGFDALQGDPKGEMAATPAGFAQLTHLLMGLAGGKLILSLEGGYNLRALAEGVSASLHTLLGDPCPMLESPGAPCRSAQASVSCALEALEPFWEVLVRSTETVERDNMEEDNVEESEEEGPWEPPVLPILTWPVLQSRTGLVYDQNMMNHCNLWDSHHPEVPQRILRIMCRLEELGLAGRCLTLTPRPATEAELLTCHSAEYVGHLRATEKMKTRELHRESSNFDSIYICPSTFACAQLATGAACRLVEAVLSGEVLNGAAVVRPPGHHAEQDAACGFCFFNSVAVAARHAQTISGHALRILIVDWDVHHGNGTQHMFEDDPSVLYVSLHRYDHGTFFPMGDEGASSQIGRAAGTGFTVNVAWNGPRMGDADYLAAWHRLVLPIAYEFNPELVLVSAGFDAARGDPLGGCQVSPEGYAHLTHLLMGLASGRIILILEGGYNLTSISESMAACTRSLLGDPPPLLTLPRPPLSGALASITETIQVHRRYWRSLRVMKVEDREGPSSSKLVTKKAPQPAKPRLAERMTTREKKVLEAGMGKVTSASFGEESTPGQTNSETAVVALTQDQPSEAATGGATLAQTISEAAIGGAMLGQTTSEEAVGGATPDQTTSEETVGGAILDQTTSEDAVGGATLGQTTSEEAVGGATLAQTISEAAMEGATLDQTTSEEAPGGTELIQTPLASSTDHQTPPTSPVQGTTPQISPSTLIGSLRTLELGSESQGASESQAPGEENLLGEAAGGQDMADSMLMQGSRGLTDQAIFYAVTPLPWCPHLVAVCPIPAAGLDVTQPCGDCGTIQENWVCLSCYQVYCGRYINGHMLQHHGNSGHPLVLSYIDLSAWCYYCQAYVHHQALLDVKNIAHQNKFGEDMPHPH
# T2: mSin3A (UniProt Q96ST3 1-1273)
# T2 construct: Endogenous protein detected by Western blot in immunoprecipitates; also called co-repressor mSin3A
# T2 sequence (looked up): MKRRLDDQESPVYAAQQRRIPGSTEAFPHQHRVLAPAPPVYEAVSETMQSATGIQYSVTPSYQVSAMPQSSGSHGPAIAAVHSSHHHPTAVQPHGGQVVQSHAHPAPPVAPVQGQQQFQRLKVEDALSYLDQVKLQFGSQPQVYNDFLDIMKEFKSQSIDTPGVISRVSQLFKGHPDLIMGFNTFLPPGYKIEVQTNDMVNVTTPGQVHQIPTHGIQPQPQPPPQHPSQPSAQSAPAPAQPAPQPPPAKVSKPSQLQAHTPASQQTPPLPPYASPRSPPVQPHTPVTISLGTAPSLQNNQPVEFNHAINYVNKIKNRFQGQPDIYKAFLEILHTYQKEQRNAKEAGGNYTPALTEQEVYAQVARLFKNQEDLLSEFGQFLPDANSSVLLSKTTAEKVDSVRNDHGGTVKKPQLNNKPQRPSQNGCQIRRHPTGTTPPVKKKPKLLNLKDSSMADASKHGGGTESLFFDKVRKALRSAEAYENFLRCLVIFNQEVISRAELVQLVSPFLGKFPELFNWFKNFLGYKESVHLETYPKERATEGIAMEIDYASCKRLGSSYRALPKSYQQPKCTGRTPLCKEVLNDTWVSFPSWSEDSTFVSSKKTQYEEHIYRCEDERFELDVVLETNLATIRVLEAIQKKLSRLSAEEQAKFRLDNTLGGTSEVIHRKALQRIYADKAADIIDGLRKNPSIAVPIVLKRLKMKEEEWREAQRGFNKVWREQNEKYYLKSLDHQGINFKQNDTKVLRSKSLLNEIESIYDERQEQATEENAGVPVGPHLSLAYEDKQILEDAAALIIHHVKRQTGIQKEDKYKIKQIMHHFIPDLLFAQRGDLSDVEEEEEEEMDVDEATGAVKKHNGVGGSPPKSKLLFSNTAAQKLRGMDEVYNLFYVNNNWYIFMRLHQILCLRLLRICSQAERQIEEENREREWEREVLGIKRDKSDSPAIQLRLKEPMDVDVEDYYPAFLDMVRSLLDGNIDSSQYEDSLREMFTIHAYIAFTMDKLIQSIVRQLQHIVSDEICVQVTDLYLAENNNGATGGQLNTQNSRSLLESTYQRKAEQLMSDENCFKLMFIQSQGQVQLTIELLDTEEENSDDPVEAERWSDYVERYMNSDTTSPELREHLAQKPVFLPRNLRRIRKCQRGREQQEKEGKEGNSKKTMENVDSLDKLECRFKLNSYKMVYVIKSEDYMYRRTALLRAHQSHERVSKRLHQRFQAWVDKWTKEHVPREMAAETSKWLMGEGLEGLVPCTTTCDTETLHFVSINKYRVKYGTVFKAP
# T3: HDAC3 from calyculin A-treated cells, O15379
# T3 chain: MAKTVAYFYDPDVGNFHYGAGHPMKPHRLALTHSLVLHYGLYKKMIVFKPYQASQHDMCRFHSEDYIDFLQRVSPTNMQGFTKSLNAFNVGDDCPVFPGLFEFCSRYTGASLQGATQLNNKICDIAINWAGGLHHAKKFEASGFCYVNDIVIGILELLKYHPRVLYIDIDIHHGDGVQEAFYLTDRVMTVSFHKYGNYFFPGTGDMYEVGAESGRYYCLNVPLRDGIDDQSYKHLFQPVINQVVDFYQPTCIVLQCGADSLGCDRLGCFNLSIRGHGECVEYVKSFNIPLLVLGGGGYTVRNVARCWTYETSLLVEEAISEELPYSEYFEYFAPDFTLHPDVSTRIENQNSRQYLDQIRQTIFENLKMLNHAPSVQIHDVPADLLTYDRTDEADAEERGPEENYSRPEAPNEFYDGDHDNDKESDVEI
# B1: Recombinant FLAG-epitope tagged HDAC4 (enzyme, not shown: small tags and cut ends)
# chain: MSSQSHPDGLSGRDQPVELLNPARVNHMPSTVDVATALPLQVAPSAVPMDLRLDHQFSLPVAEPALREQQLQQELLALKQKQQIQRQILIAEFQRQHEQLSRQHEAQLHEHIKQQQEMLAMKHQQELLEHQRKLERHRQEQELEKQHREQKLQQLKNKEKGKESAVASTEVKMKLQEFVLNKKKALAHRNLNHCISSDPRYWYGKTQHSSLDQSSPPQSGVSTSYNHPVLGMYDAKDDFPLRKTASEPNLKLRSRLKQKVAERRSSPLLRRKDGPVVTALKKRPLDVTDSACSSAPGSGPSSPNNSSGSVSAENGIAPAVPSIPAETSLAHRLVAREGSAAPLPLYTSPSLPNITLGLPATGPSAGTAGQQDTERLTLPALQQRLSLFPGTHLTPYLSTSPLERDGGAAHSPLLQHMVLLEQPPAQAPLVTGLGALPLHAQSLVGADRVSPSIHKLRQHRPLGRTQSAPLPQNAQALQHLVIQQQHQQFLEKHKQQFQQQQLQMNKIIPKPSEPARQPESHPEETEEELREHQALLDEPYLDRLPGQKEAHAQAGVQVKQEPIESDEEEAEPPREVEPGQRQPSEQELLFRQQALLLEQQRIHQLRNYQASMEAAGIPVSFGGHRPLSRAQSSPASATFPVSVQEPPTKPRFTTGLVYDTLMLKHQCTCGSSSSHPEHAGRIQSIWSRLQETGLRGKCECIRGRKATLEELQTVHSEAHTLLYGTNPLNRQKLDSKKLLGSLASVFVRLPCGGVGVDSDTIWNEVHSAGAARLAVGCVVELVFKVATGELKNGFAVVRPPGHHAEESTPMGFCYFNSVAVAAKLLQQRLSVSKILIVDWDVHHGNGTQQAFYSDPSVLYMSLHRYDDGNFFPGSGAPDEVGTGPGVGFNVNMAFTGGLDPPMGDAEYLAAFRTVVMPIASEFAPDVVLVSSGFDAVEGHPTPLGGYNLSARCFGYLTKQLMGLAGGRIVLALEGGHDLTAICDASEACVSALLGNELDPLPEKVLQQRPNANAVRSMEKVMEIHSKYWRCLQRTTSTAGRSLIEAQTCENEEAETVTAMASLSVGVKPAEKRPDEEPMEEEPPL
# notes: Complete HDAC4 ORF with C-terminal FLAG tag in pBJ5, transiently expressed in TAg Jurkat cells (untreated) and immunoprecipitated with anti-FLAG agarose; also called HDAC4-FLAG; HDAC4-F
# Columns and labels:
# [1] = target: T1, Recombinant FLAG-epitope tagged HDAC6; experiment: anti-FLAG co-immunoprecipitation from TAg Jurkat cells, Western blot
# [2] = target: B1; experiment: as above
# mSin3A = target: T2, mSin3A; experiment: anti-FLAG co-immunoprecipitation from TAg Jurkat cells, Western blot; an unexplained band of lower molecular weight was seen in the mSin3A blot
# Description: Immunoprecipitates were probed with -CHD4, -mSin3A, -MTA, -RbAp48, -HDAC1, and -HDAC3 antibodies (FIG. 5B).
# [3] = target: T3, HDAC3 from calyculin A-treated cells, …
# CHD4 = target: T4, CHD4 (UniProt Q14839 1-1912, limits assumed); experiment: anti-FLAG co-immunoprecipitation from TAg Jurkat cells, Western blot
# T4 construct: Endogenous protein detected by Western blot in immunoprecipitates; also called CHD chromodomain protein
# T4 sequence (Q14839 whole entry): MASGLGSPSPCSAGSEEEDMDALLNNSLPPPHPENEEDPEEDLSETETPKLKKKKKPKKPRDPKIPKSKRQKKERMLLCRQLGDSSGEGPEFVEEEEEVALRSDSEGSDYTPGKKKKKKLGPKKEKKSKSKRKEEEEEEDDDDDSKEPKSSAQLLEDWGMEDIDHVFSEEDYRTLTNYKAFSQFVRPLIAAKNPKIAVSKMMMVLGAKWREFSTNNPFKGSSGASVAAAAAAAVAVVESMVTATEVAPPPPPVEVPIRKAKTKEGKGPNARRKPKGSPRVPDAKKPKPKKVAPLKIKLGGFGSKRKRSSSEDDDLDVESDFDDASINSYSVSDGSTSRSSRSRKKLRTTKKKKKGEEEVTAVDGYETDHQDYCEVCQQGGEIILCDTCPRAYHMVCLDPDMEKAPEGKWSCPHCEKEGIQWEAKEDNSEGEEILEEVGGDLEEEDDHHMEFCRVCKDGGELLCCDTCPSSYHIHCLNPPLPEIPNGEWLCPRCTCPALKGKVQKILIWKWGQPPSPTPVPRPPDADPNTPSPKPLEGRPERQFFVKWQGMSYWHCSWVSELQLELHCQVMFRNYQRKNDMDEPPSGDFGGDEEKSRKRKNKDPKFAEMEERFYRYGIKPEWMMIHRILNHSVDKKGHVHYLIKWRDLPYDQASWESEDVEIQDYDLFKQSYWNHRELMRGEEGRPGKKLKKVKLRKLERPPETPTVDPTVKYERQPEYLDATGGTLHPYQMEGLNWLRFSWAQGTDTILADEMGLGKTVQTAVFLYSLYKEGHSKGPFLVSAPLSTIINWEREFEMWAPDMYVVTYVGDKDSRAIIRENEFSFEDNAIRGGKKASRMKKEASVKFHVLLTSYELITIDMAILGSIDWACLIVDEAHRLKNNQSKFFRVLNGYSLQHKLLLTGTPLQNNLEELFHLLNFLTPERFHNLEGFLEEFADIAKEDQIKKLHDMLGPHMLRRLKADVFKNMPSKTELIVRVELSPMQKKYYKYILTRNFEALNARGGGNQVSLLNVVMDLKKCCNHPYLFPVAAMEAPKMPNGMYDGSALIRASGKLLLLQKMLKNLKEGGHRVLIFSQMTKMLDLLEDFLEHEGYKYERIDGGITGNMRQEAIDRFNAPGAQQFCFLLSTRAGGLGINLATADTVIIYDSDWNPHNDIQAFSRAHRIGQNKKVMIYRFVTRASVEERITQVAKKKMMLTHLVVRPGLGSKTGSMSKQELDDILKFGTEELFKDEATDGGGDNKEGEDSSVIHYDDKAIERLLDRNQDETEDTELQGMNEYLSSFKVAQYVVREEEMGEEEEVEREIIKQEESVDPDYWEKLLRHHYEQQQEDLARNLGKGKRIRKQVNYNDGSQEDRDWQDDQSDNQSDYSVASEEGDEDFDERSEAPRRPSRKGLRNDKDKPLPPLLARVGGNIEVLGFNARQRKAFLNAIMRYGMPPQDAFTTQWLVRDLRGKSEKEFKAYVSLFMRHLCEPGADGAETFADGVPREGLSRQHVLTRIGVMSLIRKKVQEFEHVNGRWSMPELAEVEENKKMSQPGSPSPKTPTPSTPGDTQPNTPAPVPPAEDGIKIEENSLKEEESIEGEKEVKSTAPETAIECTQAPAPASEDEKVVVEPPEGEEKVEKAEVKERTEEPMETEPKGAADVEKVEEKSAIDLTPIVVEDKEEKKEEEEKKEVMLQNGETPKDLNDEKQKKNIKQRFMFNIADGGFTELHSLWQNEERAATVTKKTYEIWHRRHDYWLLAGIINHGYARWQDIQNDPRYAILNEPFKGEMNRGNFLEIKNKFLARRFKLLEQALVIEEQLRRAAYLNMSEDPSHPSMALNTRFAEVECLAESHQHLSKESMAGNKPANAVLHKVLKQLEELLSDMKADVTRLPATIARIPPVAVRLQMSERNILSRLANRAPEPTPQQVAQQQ
Binder,binding result [1],binding result [2],binding result (mSin3A),immunoprecipitated HDAC activity (release of 3H-acetic acid) [3],binding result (CHD4)
"MTA (other, UniProt Q13330 1-715, looked up, also called metastasis-associated factors (MTA)) MAANMYRVGDYVYFENSSSNPYLIRRIEELNKTANGNVEAKVVCFYRRRDISSTLIALADKHATLSVCYKAGPGADNGEEGEIEEEMENPEMVDLPEKLKHQLRHRELFLSRQLESLPATHIRGKCSVTLLNETESLKSYLEREDFFFYSLVYDPQQKTLLADKGEIRVGNRYQADITDLLKEGEEDGRDQSRLETQVWEAHNPLTDKQIDQFLVVARSVGTFARALDCSSSVRQPSLHMSAAAASRDITLFHAMDTLHKNIYDISKAISALVPQGGPVLCRDEMEEWSASEANLFEEALEKYGKDFTDIQQDFLPWKSLTSIIEYYYMWKTTDRYVQQKRLKAAEAESKLKQVYIPNYNKPNPNQISVNNVKAGVVNGTGAPGQSPGAGRACESCYTTQSYQWYSWGPPNMQCRLCASCWTYWKKYGGLKMPTRLDGERPGPNRSNMSPHGLPARSSGSPKFAMKTRQAFYLHTTKLTRIARRLCREILRPWHAARHPYLPINSAAIKAECTARLPEASQSPLVLKQAVRKPLEAVLRYLETHPRPPKPDPVKSVSSVLSSLTPAKVAPVINNGSPTILGKRSYEQHNGVDGNMKKRLLMPSRGLANHGQARHMGPSRNLLLNGKSYPTKVRLIRGGSLPPVKRRRMNWIDAPDDVFYMATEETRKIRKLLSSSETKRAARRPYKPIALRQSQALPPRPPPPAPVNDEPIVIED",no binding,no binding,,,
B1,,,no binding,dramatic reduction in immunoprecipitated HDAC activity,no binding
